Source: patent US20200407467

Experiments:
[1] = molecular target: T1, ANAPC1 peptide 1-90 (human library), Q9H1A4
T1 chain: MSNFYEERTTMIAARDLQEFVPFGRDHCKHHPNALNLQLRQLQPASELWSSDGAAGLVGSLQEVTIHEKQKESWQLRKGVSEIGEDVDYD

[2] = molecular target: T2, BSN peptide 631-720 (human library), Q9UPA5
T2 chain: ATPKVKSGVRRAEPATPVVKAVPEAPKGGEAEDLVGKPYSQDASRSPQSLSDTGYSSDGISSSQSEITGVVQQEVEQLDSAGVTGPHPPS

[3] = molecular target: T3, C14orf93 peptide 91-180 (human library), Q9H972
T3 chain: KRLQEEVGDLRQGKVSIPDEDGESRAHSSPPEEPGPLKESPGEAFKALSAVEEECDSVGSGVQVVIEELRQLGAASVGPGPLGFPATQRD

[4] = molecular target: T4, ERO1L peptide 91-180 (human library), Q96HE7
T4 chain: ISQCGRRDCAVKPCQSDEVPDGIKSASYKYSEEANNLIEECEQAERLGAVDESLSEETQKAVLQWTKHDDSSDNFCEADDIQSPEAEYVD

[5] = molecular target: T5, Efs peptide 181-270 (human library), O43281
T5 chain: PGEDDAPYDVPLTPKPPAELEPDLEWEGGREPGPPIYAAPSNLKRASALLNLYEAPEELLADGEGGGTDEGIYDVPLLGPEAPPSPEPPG

[6] = molecular target: T6, GSDMD peptide 222-278 (mouse library)
T6 chain: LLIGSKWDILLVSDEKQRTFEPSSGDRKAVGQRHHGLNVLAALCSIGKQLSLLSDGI

[7] = molecular target: T7, GSDMD peptide 259-315 (mouse library)
T7 chain: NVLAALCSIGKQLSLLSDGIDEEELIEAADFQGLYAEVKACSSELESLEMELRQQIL

[8] = molecular target: Gasdermin-D (peptides of the human library)
[9] = molecular target: HECT, UBA and WWE Domain Containing E3 Ubiquitin Protein Ligase 1 (HUWE1), endogenous in THP-1 cells, Q7Z6Z7
[10] = molecular target: T8, HMGXB4 peptide 226-315 (human library), Q9UGU5
T8 chain: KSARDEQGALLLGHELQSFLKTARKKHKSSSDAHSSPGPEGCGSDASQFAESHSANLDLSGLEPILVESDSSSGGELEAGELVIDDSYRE

[11] = molecular target: T9, HUWE1 peptide 2251-2340 (human library), Q7Z6Z7
T9 chain: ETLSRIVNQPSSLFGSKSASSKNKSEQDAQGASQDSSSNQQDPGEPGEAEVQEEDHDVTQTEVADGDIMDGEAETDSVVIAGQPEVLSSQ

[12] = molecular target: T10, HUWE1 peptide 2291-2347 (mouse library), Q7TMY8
T10 chain: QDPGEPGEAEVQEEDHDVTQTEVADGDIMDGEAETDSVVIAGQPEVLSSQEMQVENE

[13] = molecular target: T11, HUWE1 peptide 2296-2485 (human library), Q7Z6Z7
T11 chain: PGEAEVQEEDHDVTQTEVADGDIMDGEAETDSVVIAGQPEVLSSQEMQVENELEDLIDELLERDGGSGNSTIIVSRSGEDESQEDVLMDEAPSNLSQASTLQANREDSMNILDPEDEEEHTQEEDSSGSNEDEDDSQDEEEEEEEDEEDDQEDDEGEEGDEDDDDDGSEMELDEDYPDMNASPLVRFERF

[14] = molecular target: T12, HUWE1 peptide 2328-2384 (mouse library), Q7TMY8
T12 chain: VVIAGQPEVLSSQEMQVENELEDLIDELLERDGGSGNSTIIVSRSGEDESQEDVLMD

[15] = molecular target: T13, HUWE1 peptide 2341-2430 (human library), Q7Z6Z7
T13 chain: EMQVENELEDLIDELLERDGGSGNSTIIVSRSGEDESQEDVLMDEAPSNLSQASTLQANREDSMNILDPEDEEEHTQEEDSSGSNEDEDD

[16] = molecular target: T14, Hmcn2 peptide 1576-1665 (human library), Q8NDA2
T14 chain: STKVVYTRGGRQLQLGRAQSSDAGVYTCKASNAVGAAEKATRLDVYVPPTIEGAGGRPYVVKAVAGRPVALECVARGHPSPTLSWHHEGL

[17] = molecular target: T15, Hyls1 peptide 1-90 (human library), Q96M11
T15 chain: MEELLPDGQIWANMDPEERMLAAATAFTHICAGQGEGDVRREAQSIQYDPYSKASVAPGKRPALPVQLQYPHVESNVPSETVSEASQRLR

[18] = molecular target: T16, IL1B peptide 0-56 (mouse library)
T16 chain: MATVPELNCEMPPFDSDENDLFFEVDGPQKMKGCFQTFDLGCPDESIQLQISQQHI

[19] = molecular target: T17, IL1B peptide 74-130 (mouse library)
T17 chain: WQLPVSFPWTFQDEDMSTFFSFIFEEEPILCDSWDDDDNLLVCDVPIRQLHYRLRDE

[20] = molecular target: T18, IL1B peptide 75-131 (mouse library)
T18 chain: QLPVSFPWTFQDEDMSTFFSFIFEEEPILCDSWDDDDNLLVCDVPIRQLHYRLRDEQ

[21] = molecular target: LOC100287737 peptide 496-585 (human library)
[22] = molecular target: T19, LYST peptide 1171-1260 (human library), Q99698
T19 chain: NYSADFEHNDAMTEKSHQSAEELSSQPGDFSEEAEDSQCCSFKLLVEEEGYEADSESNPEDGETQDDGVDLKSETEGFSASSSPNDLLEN

[23] = molecular target: MAP3K14 peptide 496-585 (human library), Q99558
[24] = molecular target: T7-SEPARATE PreScission-cleavable clone, monovalent display (T7Select1-2b)
[25] = molecular target: T20, TNS3 peptide 451-540 (human library), Q68CZ2
T20 chain: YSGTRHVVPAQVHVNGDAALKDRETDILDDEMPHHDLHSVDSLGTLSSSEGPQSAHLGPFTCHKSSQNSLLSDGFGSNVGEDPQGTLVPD

[26] = molecular target: T21, UHRF1BP1L peptide 991-1080 (human library), A0JNW5
T21 chain: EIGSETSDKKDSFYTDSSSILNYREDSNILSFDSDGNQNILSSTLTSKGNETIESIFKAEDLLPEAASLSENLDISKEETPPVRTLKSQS

[27] = molecular target: T22, ZNF469 peptide 811-900 (human library), Q96JG9
T22 chain: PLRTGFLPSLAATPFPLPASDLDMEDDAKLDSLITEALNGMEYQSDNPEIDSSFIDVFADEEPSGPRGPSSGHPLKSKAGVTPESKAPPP

[28] = molecular target: T23, Znf462 peptide 1-90 (human library), Q96JM2
T23 chain: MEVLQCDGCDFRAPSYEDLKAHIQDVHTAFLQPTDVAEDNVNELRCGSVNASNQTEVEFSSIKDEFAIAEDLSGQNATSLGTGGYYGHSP

[29] = molecular target: T24, hoxa2 peptide 271-360 (human library), O43364
T24 chain: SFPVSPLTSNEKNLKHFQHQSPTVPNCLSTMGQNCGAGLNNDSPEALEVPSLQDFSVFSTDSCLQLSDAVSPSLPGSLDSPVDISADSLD

[30] = molecular target: unmapped_NM peptide 91-180 (human library)

B1: Caspase-1 (recombinant) (protein)
chain: NPAMPTSSGSEGNVKLCSLEEAQRIWKQKSAEIYPIMDKSSRTRLALIICNEEFDSIPRRTGAEVDITGMTMLLQNLGYSVDVKKNLTASDMTTELEAFAHRPEHKTSDSTFLVFMSHGIREGICGKKHSEQVPDILQLNAIFNMLNTKNCPSLKDKPKVIIIQACRGDSPGVVWFKDSVGVSGNLSLPTTEEFEDDAIKKAHIEKDFIAFCSSTPDNVSWRHPTMGSVFIGRLIEHMQEYACSCDVEEIFRKVRFSFEQPDGRAQMPTTERVTLTRCFYLFPGH
Caspase1 fold change [1]: 16.4 fold
Caspase1 fold change [2]: 18.8 fold
Caspase1 fold change [3]: 18.2 fold
Caspase1 fold change [4]: 19.8 fold
Caspase1 fold change [5]: 21.1 fold
Caspase1 fold change [6]: 4.23 fold
Caspase1 fold change [7]: 6.78 fold
enrichment in SEPARATE (human library digest) [8]: did not score in the assay
Western blot, cleavage of endogenous HUWE1 in THP-1 lysate [9]: robust cleavage of endogenous HUWE1
Caspase1 fold change [10]: 16.5 fold
Caspase1 fold change [11]: 17.6 fold
Caspase1 fold change [12]: 6.13 fold
Caspase1 fold change [13]: 22.7 fold
Caspase1 fold change [14]: 23.1 fold
Caspase1 fold change [15]: 16.6 fold
Caspase1 fold change [16]: 16.3 fold
Caspase1 fold change [17]: 19.7 fold
Caspase1 fold change [18]: 8.1 fold
Caspase1 fold change [19]: 13.2 fold
Caspase1 fold change [20]: 8.8 fold
Caspase1 fold change [21]: 16.4 fold
Caspase1 fold change [22]: 21 fold
Caspase1 fold change [23]: 16.5 fold
enrichment of the PreScission digestible clone spiked into the human library [24]: no enrichment is observed when digested with Caspase-1
Caspase1 fold change [25]: 18.7 fold
Caspase1 fold change [26]: 16.4 fold
Caspase1 fold change [27]: 16.8 fold
Caspase1 fold change [28]: 19.1 fold
Caspase1 fold change [29]: 17.1 fold
Caspase1 fold change [30]: 18.7 fold
